Tests used:
Conditions in all cases: remark: other sources report otherwise
[1] = molecular target: SARS-CoV-2 RBD (B.1.1.7) domain (SARS-CoV-2); assay: RBD/ACE2 blocking ELISA
[2] = molecular target: SARS-CoV-2 RBD (B.1.351) domain (SARS-CoV-2); assay: RBD/ACE2 blocking ELISA
[3] = molecular target: SARS-CoV-2 RBD (P.1) domain (SARS-CoV-2); assay: RBD/ACE2 blocking ELISA
[4] = molecular target: T1, SARS-CoV-2 Spike ectodomain (tri-S), Wuhan (SARS-CoV-2), P0DTC2; assay: tri-S/ACE2 blocking ELISA
[5] = molecular target: SARS-CoV-2 RBD (B.1.1.7) domain (SARS-CoV-2); assay: RBD-ACE2 competition ELISA; set-up: unit not given beside the values
[6] = molecular target: SARS-CoV-2 RBD (B.1.351) domain (SARS-CoV-2); assay: RBD-ACE2 competition ELISA; set-up: unit not given beside the values
[7] = molecular target: SARS-CoV-2 RBD (P.1) domain (SARS-CoV-2); assay: RBD-ACE2 competition ELISA; set-up: unit not given beside the values
[8] = molecular target: T1, SARS-CoV-2 Spike ectodomain (tri-S), …; assay: competition ELISA vs bio-Cv2.1169

B1: Cv2.3194 (recombinant human IgG1) (antibody)
heavy: EVQLVESGGGLIQPGGSLRLSCAASGITVTSNYMSWVRQAPGKGLEWVSVIYPGGSTFYADSVKGRFTISRDNSKNTLYLQMNSLRAEDTAVYYCARDLVVYGMDVWGQGTTVTVSSASTKGPSVFPLAPSSKSTSGGTAALGCLVKDYFPEPVTVSWNSGALTSGVHTFPAVLQSSGLYSLSSVVTVPSSSLGTQTYICNVNHKPSNTKVDKKVEPKSCDKTHTCPPCPAPELLGGPSVFLFPPKPKDTLMISRTPEVTCVVVDVSHEDPEVKFNWYVDGVEVHNAKTKPREEQYNSTYRVVSVLTVLHQDWLNGKEYKCKVSNKALPAPIEKTISKAKQPREPQVYTLPPSRDELTKNQVSLTCLVKGFYPSDIAVEWESNGQPENNYKTTPPVLDSDGSFFLYSKLTVDKSRWQQGNVFSCSVMHEALHNHYTQKSLSLSPGK
light: EIVLTQSPGTLSLSPGERATLSCRASQSVSSSYLAWYQQKPGQAPRLLIYGASSRATGIPGRFSGSGSGTDFTLTISRLEPEDFAIYYCQQGVTFGGGTKVEIKRTVAAPSVFIFPPSDEQLKSGTASVVCLLNNFYPREAKVQWKVDNALQSGNSQESVTEQDSKDSTYSLSSTLTLSKADYEKHKVYACEVTHQGLSSPVTKSFNRGEC
% binding inhibition [1]: 97% | % binding inhibition [2]: 95% | % binding inhibition [3]: 94% | % binding inhibition [4]: 97% | AUC (RBD block.) [5]: 147 | AUC (RBD block.) [6]: 168 | AUC (RBD block.) [7]: 139 | % inhibition (competition) [8]: 81
